This note sets out measurements from the DeepSol protein solubility set.

The data set in a line: soluble on expression in E. coli; label from the status in PepcDB or PDB records.
For the sequence “MVSKIRTFGWVQNPGKFENLKRVVQVFDRNSKVHNEVKNIKIPTLVKESKIQKELVAIMNQHDLIYTYKELVGTGTSIRSEAPCDAIIQATIADQGNKKGYIDNWSSDGFLRWAHALGFIEYINKSDSFVITDVGLAYSKSADGSAIEKEILIEAISSYPPAIRILTLLEDGQHLTKFDLGKNLGFSGESGFTSLPEGILLDTLANAMPKDKGEIRNNWEGSSDKYARMIGGWLDKLGLVKQGKKEFIIPTLGKPDNKEFISHAFKITGEGLKVLRRAKGSTKFTRVPKRVYWEMLATNLTDKEYVRTRRALILEILIKAGSLKIEQIQDNLKKLGFDEVIETIENDIKGLINTGIFIEIKGRFYQLKDHILQFVIPNRLGKPDLVKSELEEKKSELRHKLKYVPHEYIELIEIARNSTQDRILEMKVMEFFMKVYGYRGKHLGGSRKPDGAIYTVGSPIDYGVIVDTKAYSGGYNLPIGQADEMQRYVEENQTRNKHINPNEWWKVYPSSVTEFKFLFVSGHFKGNYKAQLTRLNHITNCNGAVLSVEELLIGGEMIKAGTLTLEEVRRKFNNGEINF”, the “soluble on expression in E. coli” value is given as “soluble”.
Next, “GPGSMGKYAAVIIGPAGSGKSTLCGVLAEHYATMGRSTHIANMDPAADLLPYEPSMDIRDLISLEDAMEGKGLGPNGGLVFCMEYLVTAGATWVSQQLGDYADDFIIVDMPGQVEVLSNQPAVPAFVRLLQQEGYYTTVLYLLDALATTADSGKFISGCMFSLSSMVCFDCPFINVLTKCDLLSKDFKENGMLEHFCMCDFDYMDLSRLPPRFRAMSRQIGALLTDFNLVTFRPVDIEDVGYVSNLCSVLDETLQVADEAEVQDHDLGDN”: “soluble”; “KHSCIAVIDAGSTGSRLHIYSYDTDDTNTPIHIEEIWNKKIKPGFASIQPNSVTIDAYLTMLLADAPIHNIPVYFYATAGMRLLPQSQQKKYYDELEYWFRQQSQWQLVEAKTITGNDEALFDWLAVNYKLDTLKSVQNKSVGVMDMGGASVQIVFPMPKNAEISKHNQVELNIYGQNINLYVHSFLGLGQTEMSHQFLNSPSCFANDYPLPDGESGQGNAPSCKEEVTSLMNSVHKVNQQIQPLLALNPVNEWYSIGGISNLASSQLFHFENSELTNQSLLQQGDNQICHQQWDILNGQYPDDEYLYQYCLLSSYYYALMVDGYGINPNQTIHYIPPEQNLDWTIGVVLHRA”: “soluble”; “MSRRKAGSAPRRVEPAPAANPDDEMEMQDLVIELKPEPDAQPQQAPRLGPFSPKEVSSAGRFGGEPHHSPGPMPAGAALLALGPRNPWTLWTPLTPNYPDRQPWTDKHPDLLTCGRCLQTFPLEAITAFMDHKKLGCQLFRGPSRGQGSEREELKALSCLRCGKQFTVAWKLLRHAQWDHGLSIYQTESEAPEAPLLGLAEVAAAVSAVVGPAAEAKSPRASGSGLTRRSPTCPVCKKTLSSFSNLKVHMRSHTGERPYACDQCPYACAQSSKLNRHKKTHRQVPPQSPLMADTSQEQASAAPPEPAVHAAAPTSTLPCSGGEGAGAAATAGVQEPGAPGSGAQAGPGGDTWGAITTEQRTDPANSQKASPKKMPKSGGKSRGPGGSCEFCGKHFTNSSNLTVHRRSHTGERPYTCEFCNYACAQSSKLNRHRRMHGMTPGSTRFECPHCHVPFGLRATLDKHLRQKHPEAAGEA”: “not soluble”.
Next, “GSHMKETKKAGPIELPEELEAQRQRHNDPRRPPWPLLHQRVVLLREGKGAPEDIALMWEQTKHYYPADWLIPLELTQVLKYSSGKYLQTYVADPDEMRKEVLMQLLNVKYGRVSDPNGGRVNKDVEEIISMAVDDLENMDLNPAADAVLIPTHT”: “soluble”; “MRHISIFGTSSDAGKSTLTFVIAKILQRAGIRVAPFKAQNVSNNARVCDDGSEIAIAQSFQAEVLAIPTSYHLNPILLKSGINGQASVIVEGQVISQQDVLEYYRDLDTLKPAVQRCFETLAKMYDCIVAEGAGSPVELNLMDKDLSNIFIAKHYQTKIILVADIEKGGVFASVWGTYNLLPADLRSNVIGVIINKFRGDLSLFDEGIRIIEQAFKIPVLGVLPYMPFNLGFEDNASLQNFVQQPRQKKLKIGVIAYPYMSNYNDFEPLIADDEVLLEFINSPISLEHFDGVILPGSKLVIEDLHWLKTNGLFEQLQQRRKPIFAICGGYEMLFEQLHDPERIENLEPTTATGLGLIDDEIYFAKNKILNKAEYPIFGLNIAGFEMHHGISQKYPLYFQKDNIQGTFIHQVFDHNAFRTQYLRAICAQYQGFDFQLYKTEQINNFIEACRKRLNVKLILEAIQDQ”: “not soluble”; “GAMDIVVNDDLSCRFLEGFNTRDALCKKISMNTCDEGDPFFVADLGDIVRKHETWKKCLPRVTPFYAVKCNDDWRVLGTLAALGTGFDCASNTEIQRVRGIGVPPEKIIYANPCKQISHIRYARDSGVDVMTFDCVDELEKVAKTHPKAKMVLRISTDDSLARCRLSVKFGAKVEDCRFILEQAKKLNIDVTGVSFHVGSGSTDASTFAQAISDSRFVFDMGTELGFNMHILDIGGGFPGTRDAPLKFEEIAGVINNALEKHFPPDLKLTIVAEPGRYYVASAFTLAVNVIAKKVTPGVQTDVGAHAESNAQSFMYYVNDGVYGSFNCILYDHAVVRPLPQREPIPNEKLYPSSVWGPTCDGLDQIVERYYLPEMQVGEWLLFEDMGAYTVVGTSSFNGFQSPTIYYVVSGLPDHVVRELKSQKS”: “soluble”.
On to “MGSDKIHHHHHHMKTYTSNHIVFFSPTHTSAKIARAIGESIGMGRRIEIDLTTDENSSPIEIKDSITIIAVPVYAGRVAPIALQRLRRLKGNNAPAILVAVYGNRDYEDALVELRDETIQLGFTPLAAGAFIGEHSYSRPNMPIAEGRPDVTDLQIAEQFGKDCLTKLEKDETLSDFYLKGNIPYRFVGPSTPAAPVCTEECFACGECIEVCPTHAIALSDEGKIETEITKCIKCCACVKECPNGARVFDTPYTPMLHQKCAARREPELFI”, for which the “soluble on expression in E. coli” value is listed as “not soluble”.
Next, “MRKYEQKQLRNHDILTQHYEEVYRQLPEFKSLDDSISILSVQYGKRLLNGDQKAISSLKEELAILRASKQELLRSSGFPADYLEPVYDCPNCKDTGYIGNQKCHCFKKAIIDLLYEQSNLKEILKKENFSNFALDYYSTNFIDPKTGRSSRQVIEDALRICRNFVTSFGTDFQNLFLYGDVGVGKTFLSNCIAKELMDKEYSVLYFSASKFFSSLAKHAFDKQDVDAQNMFELIYNCDCLIIDDLGTEYTNNFIASQFFTCINERLLNSRSTIISTNLSLDTLADLYTERSFSRITSNYIMLKLIGDDIRIKKKLKNREEN”: “not soluble”.
With “MSSNPLRFFVLTIFPHIISCYSEYGIVKQAIKKGKVEVYPIDLREFAPKGQVDDVPYGGLPGMVLKPEPIYEAYDYVVENYGKPFVLITEPWGEKLNQKLVNELSKKERIMIICGRYEGVDERVKKIVDMEISLGDFILSGGEIVALAVIDAVSRVLPGVLSEPQSIQEDSFQNRWLGYPVYTRPREYRGMKVPEELLSGHHKLIELWKLWHRIENTVKKRPDLIPKDLTELEKDILNSILSGKSFKEWLKEHKHLL”, the “soluble on expression in E. coli” value was “soluble”.
On to “MAHHHHHHMGDAENNENDKKCLWVPDEEVTNCYSCNAFFNVRVRKHHCRACGNVFCSNCSDNKIKISEYSYAEKVRVCDRCFMERSSPQTLLLQEDLGARKQINQDLKKALSEKMAIVERFKTFLLEFDSEILNNSDHADGSNDVMSLLKRGEKGLKDLNDKIRNYDSIIENQKKELEHLKREKEQKTELNKILHLRNHEIQQKNMNIKNLVKEKNELTLVKEESEGIIHSYKKQVEKLIIRCNQLELEKKRKNYTDQSSNYSFTNSSSQSYMMNSYRLPQNEMSVSYTVAQGPSDDPEEENCCNYCQRRVCSIM”, for which the “soluble on expression in E. coli” value was “not soluble”.
Turning to “MSLELVIGTKRWSSWSLRPWLALKRAGVDFTELEVALRRGEATGDEIGCISPSRLAPALRDGDLVIWDSLAICEYLAERYPDAKLWPDDPVLRALGRSACAEMHSGFQALRGECPMALDEPPRKLDLSEATQKNVRRIVALWTGLLARSHGPFLLGDWSIADAFYTPVATRFRTYDVRLADYGDAGAAQGYSDRLLQTPEFLEWERAAQAGEGHHHHHH”, the “soluble on expression in E. coli” value is recorded as “soluble”.
Regarding “MADRGGFQSGFGGRGGGRGGARPAGDRPAGRGGRGGRGGRGGRGGRAGRGGEKETEWTPVTKLGRLVKEKKITTLEEIYLNSLPIKEFEIIDALCSNLKDEVLKISPVQKQTTAGQRTRFKAFVAIGDHAGHVGLGVKCSKEVATAIRGAIVAAKLAVVPVRRGYWGNKIGLPHTVPCKVTGKCASVMVRLIPAPRGTGIVSAPVPKKLLHMAGIEDCYTAAKGSTATLGNFAKATYAALQRTYSYLTPDLWKEEALEKSPYQRHHEYLARN”, the “soluble on expression in E. coli” value is “not soluble”.
Next, “MDDREGSFVAVRRISQGLERGSVYNSSSAEAVPGSAAWLGRGLSCVCAQRRDSDANSTFDLTPAQEECLQSLQNRIDVAYDSTIPLHQEALRELWKLSFPEEELHGLISEQWKEMGWQGKDPSTDFRGGGFISLENLLYFARNFQKSFQDLLRKQVGDRSVWEYPFAVAGINLTFMLIQMLDLEAVKPRTIVGATFLKFLSENESAFDLLYCIAFKLMDQQWLSMRASYMEFNTVMKSTRRQLERELMLEDIMHLEDLPSYALLNQ”: “not soluble”; “MLARVCERTPISTPAWTDTLTRLAPDASSVLARGPWTWKYALPPAVVGVAALAASSPWGVVGVALAAFVVWFHRDPDRSPNGAGVVVPADGTVSVIRTRDDGRVRVGVFMNVHNVHVNRVPVAGRVESVVHEPGGHRPAFSKESAHNERVRIETAEWTVVLIAGAFARRIHPYVEAGEDLARGDRLGHISFGSRADVVLPPAYDRGDVVVESGQTVRAGETVLARLEHHHHHH”: “soluble”; “MNTDAIESMVRDVLSRMNSLQGEAPAAAPAAGGASRSARVSDYPLANKHPEWVKTATNKTLDDFTLENVLSNKVTAQDMRITPETLRLQASIAKDAGRDRLAMNFERAAELTAVPDDRILEIYNALRPYRSTKEELLAIADDLESRYQAKICAAFVREAATLYVERKKLKGDD”: “soluble”.
As for “MTSEQNIQTFRDFLTQYNLVAEQCFNSCVNEFGSRTVSGKEESCANNCLDKFLKMTQRVSQRFQEHQLLNAQANGAAIKVENGGKINKIQ”, the “soluble on expression in E. coli” value was “not soluble”.
As to “MIAELHIADDETAVKVLHLQRRAYTIEAQIIGSKALPPLHDTIASLQRCGERFFGYFQGERLVGAIACKRNGKTLRLCRLMVDPDCFRQGIASALLDFVIKQEPSISEIVVTTGSGNAPAIRFYERHGFRAIERIETPERIELTKLVKRSG”, the “soluble on expression in E. coli” value is given as “not soluble”.
Next, “MSLHATMEDVAKLAGVSLKSVSRVINAEPHVSAKLRAKVEAAIAELNYVPDTAARSLAGSRAFIVGLLFDNPSPNYTMNIQKGVYETCRDQQHHLRIDNIDSTVPAEKFEAQLAAMVRNSRCDGFVLTPPLTDNVVLLDFLDRSGIRYVRIAPDIQPDRSPGVCIDDAAAAAAAARHLWELGHRRFAVVRGPASHGAAGRRRQGFIDELHRLGAENPIIEAEGNFSFESGIAAGAKVLAATPRPTAIFAANDDSAAGVMVACSQAGLKVPNDVSVCGFDDSWVAKSVWPYLTTVYQPIEEMGRAAAALLLRRDEPDNVLHELDFSLVVRASTAEGHHHHHH”: “soluble”; “MGSDKIHHHHHHMSQRLQALYGLKWNPFSPELPLEALYVPPRVENFCWRIENALVREGGFAMIHGEPGTGKSVVMRVLAEKLERLTDLTVVSINHPQSNLADFYREMGDIFGLELRPHNRWGGFRSLRDRWMSHLQSTRRRPILLIDEAQEMSPGVLNELRLMASARFDSQPLLCVVLAGDTRLTDKLRRDELLPLGSRIRSRLGTEKASADDLLACLDHLLASAGAPQLMTPPLRHTLCEHALGNYRVLTTLANELLTTAAQRELSELDEKLYFEVFAPSTQSSRRTPARQPNGAR”: “not soluble”.
